# B1: Rv0577: ~32 kDa IL-10 producing protein encoded by Rv0577 (cfp32), SEQ ID NO: 2 (protein, listed as Mycobacterium tuberculosis)
# chain: MPKRSEYRQGTPNWVDLQTTDQSAAKKFYTSLFGWGYDDNPVPGGGGVYSMATLNGEAVAAIAPMPPGAPEGMPPIWNTYIAVDDVDAVVDKVVPGGGQVMMPAFDIGDAGRMSFITDPTGAAVGLWQANRHIGATLVNETGTLIWNELLTDKPDLALAFYEAVVGLTHSSMEIAAGQNYRVLKAGDAEVGGCMEPPMPGVPNHWHVYFAVDDADATAAKAAAAGGQVIAEPADIPSVGRFAVLSDPQGAIFSVLKPAPQQ
# System: human monocytes
# Format: cell-based
molecule,measurement,value
B1,IL-10 inducing activity of Mtb attributed to Rv0577,~60%

# Reference: US20050267025A1, “Compositions and methods for treatment of infectious and inflammatory diseases” (priority 2002, published 2005)
